Measured values from article PMC7041945, “Misfolded proteins bind and activate death receptor 5 to trigger apoptosis during unresolved endoplasmic reticulum stress” (eLife, 2020).

Tested on: CHOP, BiP, and DR5 mRNA in HCT116 cells
Assay: qPCR of UPR target transcripts (CHOP, BiP, DR5)
Assay type: cell-based, Homo sapiens
Conditions: HCT116; for ERO1alpha (386+387) avg. fold induction relative to empty traffo / ERO1alpha (386+387) fold induction relative to empty traffo: melt curves for these primers showed two peaks; for GAPDH avg. fold induction relative to empty traffo / GAPDH fold induction relative to empty traffo: sheet Cq data 2
Experimental: Cells were grown in 6-well plates and harvested with 0.5 ml of TRIzol reagent (Life Technologies) per manufacturer’s protocol to extract RNA. For cDNA synthesis, 500 ng of total RNA was reverse transcribed with 2 μl of the SuperScript VILO master mix (Life Technologies # 11755050) in a total reaction volume of 10 μl following the manufacturer’s protocol for reaction temperature and duration. The reverse transcription product was diluted to 200 μl with 10 mM Tris-HCl pH 8.2 and used at 1:100 dilution for subsequent RT-PCR reactions.
PCR samples were prepared as described by manufacturer’s protocols from iQ SYBR Green Supermix (BioRad #17088800).
For each experiment, qRT-PCR reactions were set up in triplicate and run using a CFX96 Real Time System (Bio-Rad). Quantitation cycles were determined with CFX Manager 3.0 software (Bio-Rad) and then normalized to GAPDH as an internal control.

[1] = pRK CHOP 31 ng, mean of 3 replicates
[2] = pRK CHOP 62 ng, mean of 3 replicates
[3] = pRK CHOP 125 ng, mean of 3 replicates
[4] = pRK CHOP 250 ng, mean of 3 replicates
[5] = pRK CHOP 500 ng, mean of 3 replicates

B1: pRK CHOP (protein, UniProt P35638 1-169, looked up)
DNA damage-inducible …: MAAESLPFSFGTLSSWELEAWYEDLQEVLSSDENGGTYVSPPGNEEEESKIFTTLDPASLAWLTEEEPEPAEVTSTSQSPHSPDSSQSSLAQEEEEEDQGRTRKRKQSGHSPARAGKQRMKEKEQENERKVAQLAEENERLKQEIERLTREVEATRRALIDRMVNLHQA
modifications: expression plasmid
- GAPDH (qPCR CHOP, Sheet1) (pRK CHOP 31 ng, replicate 1): 0.869
- CHOP (qPCR CHOP, Sheet1) (pRK CHOP 31 ng, replicate 2): 19.1521
- DR5 (qPCR CHOP, Sheet1) (pRK CHOP 31 ng, replicate 2): 0.9212
- GADD34 (qPCR CHOP, Sheet1) (pRK CHOP 31 ng, replicate 2): 1.088
- GAPDH (qPCR CHOP, Sheet1) (pRK CHOP 31 ng, replicate 2): 1.031
- CHOP (qPCR CHOP, Sheet1) (pRK CHOP 31 ng, replicate 3): 20.8362
- DR5 (qPCR CHOP, Sheet1) (pRK CHOP 31 ng, replicate 3): 2.023
- GADD34 (qPCR CHOP, Sheet1) (pRK CHOP 31 ng, replicate 3): 1.137
- GAPDH (qPCR CHOP, Sheet1) (pRK CHOP 31 ng, replicate 3): 1.033
- GADD34 (388+389) avg. fold induction relative to empty traffo [1]: 1
- GFP avg. fold induction relative to empty traffo [1]: 1.822
- ERO1alpha (386+387) avg. fold induction relative to empty traffo [1]: 1.061
- ERO1alpha (386+387) fold induction relative to empty traffo (pRK CHOP 31 ng, replicate 1): 0.958
- ERO1alpha (386+387) fold induction relative to empty traffo (pRK CHOP 31 ng, replicate 2): 1.088
- ERO1alpha (386+387) fold induction relative to empty traffo (pRK CHOP 31 ng, replicate 3): 1.137
- GADD34 (388+389) fold induction relative to empty traffo (pRK CHOP 31 ng, replicate 1): 1.125
- GFP fold induction relative to empty traffo (pRK CHOP 31 ng, replicate 1): 1.737
- GADD34 (388+389) fold induction relative to empty traffo (pRK CHOP 31 ng, replicate 2): 0.859
- GFP fold induction relative to empty traffo (pRK CHOP 31 ng, replicate 2): 1.908
- GADD34 (388+389) fold induction relative to empty traffo (pRK CHOP 31 ng, replicate 3): 1.016
- GFP fold induction relative to empty traffo (pRK CHOP 31 ng, replicate 3): 1.822
- GAPDH avg. fold induction relative to empty traffo [1]: 1.0065
- GAPDH fold induction relative to empty traffo (pRK CHOP 31 ng, replicate 1): 0.9404
- GAPDH fold induction relative to empty traffo (pRK CHOP 31 ng, replicate 2): 0.905
- GAPDH fold induction relative to empty traffo (pRK CHOP 31 ng, replicate 3): 1.174
- GFP avg. fold induction relative to empty traffo [2]: 1.726
- ERO1alpha (386+387) avg. fold induction relative to empty traffo [2]: 1.099
- ERO1alpha (386+387) fold induction relative to empty traffo (pRK CHOP 62 ng, replicate 1): 1.074
- ERO1alpha (386+387) fold induction relative to empty traffo (pRK CHOP 62 ng, replicate 2): 1.056
- ERO1alpha (386+387) fold induction relative to empty traffo (pRK CHOP 62 ng, replicate 3): 1.168
- GADD34 (388+389) fold induction relative to empty traffo (pRK CHOP 62 ng, replicate 1): 0.9151
- GFP fold induction relative to empty traffo (pRK CHOP 62 ng, replicate 1): 1.604
- GADD34 (388+389) fold induction relative to empty traffo (pRK CHOP 62 ng, replicate 2): 1.316
- GFP fold induction relative to empty traffo (pRK CHOP 62 ng, replicate 2): 1.747
- GADD34 (388+389) fold induction relative to empty traffo (pRK CHOP 62 ng, replicate 3): 1.12
- GFP fold induction relative to empty traffo (pRK CHOP 62 ng, replicate 3): 1.828
- GAPDH avg. fold induction relative to empty traffo [2]: 1.001
- GAPDH fold induction relative to empty traffo (pRK CHOP 62 ng, replicate 1): 0.9597
- GAPDH fold induction relative to empty traffo (pRK CHOP 62 ng, replicate 2): 0.9785
- GAPDH fold induction relative to empty traffo (pRK CHOP 62 ng, replicate 3): 1.064
- CHOP (qPCR CHOP, Sheet1) (pRK CHOP 125 ng, replicate 1): 230.561
- DR5 (qPCR CHOP, Sheet1) (pRK CHOP 125 ng, replicate 1): 1.242
- GADD34 (qPCR CHOP, Sheet1) (pRK CHOP 125 ng, replicate 1): 1.11
- GAPDH (qPCR CHOP, Sheet1) (pRK CHOP 125 ng, replicate 1): 0.8158
- CHOP (qPCR CHOP, Sheet1) (pRK CHOP 125 ng, replicate 2): 173.762
- DR5 (qPCR CHOP, Sheet1) (pRK CHOP 125 ng, replicate 2): 1.206
- GADD34 (qPCR CHOP, Sheet1) (pRK CHOP 125 ng, replicate 2): 1.18
- GAPDH (qPCR CHOP, Sheet1) (pRK CHOP 125 ng, replicate 2): 1.045
- CHOP (qPCR CHOP, Sheet1) (pRK CHOP 125 ng, replicate 3): 257.78
- DR5 (qPCR CHOP, Sheet1) (pRK CHOP 125 ng, replicate 3): 1.064
- GADD34 (qPCR CHOP, Sheet1) (pRK CHOP 125 ng, replicate 3): 1.241
- GAPDH (qPCR CHOP, Sheet1) (pRK CHOP 125 ng, replicate 3): 1.086
- GFP avg. fold induction relative to empty traffo [3]: 8.414
- ERO1alpha (386+387) avg. fold induction relative to empty traffo [3]: 1.177
- ERO1alpha (386+387) fold induction relative to empty traffo (pRK CHOP 125 ng, replicate 1): 1.11
- ERO1alpha (386+387) fold induction relative to empty traffo (pRK CHOP 125 ng, replicate 2): 1.18
- ERO1alpha (386+387) fold induction relative to empty traffo (pRK CHOP 125 ng, replicate 3): 1.241
- GADD34 (388+389) fold induction relative to empty traffo (pRK CHOP 125 ng, replicate 1): 1.561
- GFP fold induction relative to empty traffo (pRK CHOP 125 ng, replicate 1): 9.5448
- GADD34 (388+389) fold induction relative to empty traffo (pRK CHOP 125 ng, replicate 2): 1.2889
- GFP fold induction relative to empty traffo (pRK CHOP 125 ng, replicate 2): 8.015
- GADD34 (388+389) fold induction relative to empty traffo (pRK CHOP 125 ng, replicate 3): 1.475
- GFP fold induction relative to empty traffo (pRK CHOP 125 ng, replicate 3): 7.683
- GAPDH avg. fold induction relative to empty traffo [3]: 1.018
- GAPDH fold induction relative to empty traffo (pRK CHOP 125 ng, replicate 1): 0.7828
- GAPDH fold induction relative to empty traffo (pRK CHOP 125 ng, replicate 2): 1.018
- GAPDH fold induction relative to empty traffo (pRK CHOP 125 ng, replicate 3): 1.254
- GFP avg. fold induction relative to empty traffo [4]: 2.186
- ERO1alpha (386+387) avg. fold induction relative to empty traffo [4]: 1.157
- ERO1alpha (386+387) fold induction relative to empty traffo (pRK CHOP 250 ng, replicate 1): 1.13
- ERO1alpha (386+387) fold induction relative to empty traffo (pRK CHOP 250 ng, replicate 2): 1.17
- ERO1alpha (386+387) fold induction relative to empty traffo (pRK CHOP 250 ng, replicate 3): 1.17
- GADD34 (388+389) fold induction relative to empty traffo (pRK CHOP 250 ng, replicate 1): 1.613
- GFP fold induction relative to empty traffo (pRK CHOP 250 ng, replicate 1): 2.374
- GADD34 (388+389) fold induction relative to empty traffo (pRK CHOP 250 ng, replicate 2): 1.727
- GFP fold induction relative to empty traffo (pRK CHOP 250 ng, replicate 2): 2.176
- GADD34 (388+389) fold induction relative to empty traffo (pRK CHOP 250 ng, replicate 3): 1.397
- GFP fold induction relative to empty traffo (pRK CHOP 250 ng, replicate 3): 2.009
- GAPDH avg. fold induction relative to empty traffo [4]: 1.005
- GAPDH fold induction relative to empty traffo (pRK CHOP 250 ng, replicate 1): 0.8675
- GAPDH fold induction relative to empty traffo (pRK CHOP 250 ng, replicate 2): 1.034
- GAPDH fold induction relative to empty traffo (pRK CHOP 250 ng, replicate 3): 1.114
- CHOP (qPCR CHOP, Sheet1) (pRK CHOP 500 ng, replicate 1): 1691.32
- DR5 (qPCR CHOP, Sheet1) (pRK CHOP 500 ng, replicate 1): 1.92
- GADD34 (qPCR CHOP, Sheet1) (pRK CHOP 500 ng, replicate 1): 1.469
- GAPDH (qPCR CHOP, Sheet1) (pRK CHOP 500 ng, replicate 1): 0.9688
- CHOP (qPCR CHOP, Sheet1) (pRK CHOP 500 ng, replicate 2): 1384.67
- DR5 (qPCR CHOP, Sheet1) (pRK CHOP 500 ng, replicate 2): 1.724
- GADD34 (qPCR CHOP, Sheet1) (pRK CHOP 500 ng, replicate 2): 1.35
- GAPDH (qPCR CHOP, Sheet1) (pRK CHOP 500 ng, replicate 2): 0.7886
- CHOP (qPCR CHOP, Sheet1) (pRK CHOP 500 ng, replicate 3): 1378.19
- DR5 (qPCR CHOP, Sheet1) (pRK CHOP 500 ng, replicate 3): 1.731
- GADD34 (qPCR CHOP, Sheet1) (pRK CHOP 500 ng, replicate 3): 1.457
- GAPDH (qPCR CHOP, Sheet1) (pRK CHOP 500 ng, replicate 3): 1.212
- GFP avg. fold induction relative to empty traffo [5]: 12.178
- ERO1alpha (386+387) avg. fold induction relative to empty traffo [5]: 1.425
- ERO1alpha (386+387) fold induction relative to empty traffo (pRK CHOP 500 ng, replicate 1): 1.469
- ERO1alpha (386+387) fold induction relative to empty traffo (pRK CHOP 500 ng, replicate 2): 1.35
- ERO1alpha (386+387) fold induction relative to empty traffo (pRK CHOP 500 ng, replicate 3): 1.457
- GADD34 (388+389) fold induction relative to empty traffo (pRK CHOP 500 ng, replicate 1): 2.321
- GFP fold induction relative to empty traffo (pRK CHOP 500 ng, replicate 1): 5.396
- GADD34 (388+389) fold induction relative to empty traffo (pRK CHOP 500 ng, replicate 2): 2.041
- GADD34 (388+389) fold induction relative to empty traffo (pRK CHOP 500 ng, replicate 3): 2.147
- GFP fold induction relative to empty traffo (pRK CHOP 500 ng, replicate 3): 5.386
- GAPDH avg. fold induction relative to empty traffo [5]: 1.044
- GAPDH fold induction relative to empty traffo (pRK CHOP 500 ng, replicate 1): 0.6526
- GAPDH fold induction relative to empty traffo (pRK CHOP 500 ng, replicate 2): 1.156
- GAPDH fold induction relative to empty traffo (pRK CHOP 500 ng, replicate 3): 1.324
